In paper PMC9953421, “Regulation of CRISPR-Associated Genes by Rv1776c (CasR) in Mycobacterium tuberculosis”:

T1: CasR (Rv1776c) (UniProt O33179 1-186)
T1 sequence: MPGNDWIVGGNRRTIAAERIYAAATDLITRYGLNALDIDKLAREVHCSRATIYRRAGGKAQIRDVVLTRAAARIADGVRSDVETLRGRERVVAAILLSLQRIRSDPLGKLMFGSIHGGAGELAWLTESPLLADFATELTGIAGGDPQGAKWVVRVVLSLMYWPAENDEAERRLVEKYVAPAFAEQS

B1: csm6p1 (dsDNA)
DNA 1: CGATAGTTGGCCCAATTGTCTATCTGGGC
DNA 2: GCCCAGATAGACAATTGGGCCAACTATCG
B2: casRp1 (dsDNA)
DNA 1: AATAAGTAAGGCTTGTGTCTCACTATGA
DNA 2: TCATAGTGAGACACAAGCCTTACTTATT

Biological target: T1, CasR (Rv1776c)
Assay: EMSA; 0-2 uM protein
Details: protein: recombinant, tags: N-terminal His (pET28a), chain copies: 2

Binder	binding result	binding result (blunt)
B1	binds	–
B2	–	binds
